Positions of bridges follow the written chain, without caps; N, C: chain ends. Non-standard residues stand in square brackets, D forms with d. Primed or numbered codes have the meaning given here. *: point of attachment. (pyridine)3,5‑diyldimethylene = -CH2-(pyridine-3,5-diyl)-CH2- bridge between the two Cys sulfurs; (3,3-oxetanediyl)dimethylene = -CH2-(oxetane-3,3-diyl)-CH2- bridge between the two Cys sulfurs; (1,2-phenylenediyl)dimethylene = -CH2-(1,2-phenylene)-CH2- bridge between the two Cys sulfurs; Pro(4S-NH2) = N[C@@H]1CN[C@H](C(=O)O)C1; Stearoyl = CCCCCCCCCCCCCCCCCC(=O)*; Palmitoyl = CCCCCCCCCCCCCCCC(=O)*; Nonadecanoyl′ = not defined here; Myristoyl = CCCCCCCCCCCCCC(=O)*; Thz = O=C(O)[C@@H]1CSCN1; Dodecyl = CCCCCCCCCCCC*; βAla = NCCC(=O)O
Target: T1, Keap1-Maltose Binding Protein (MBP tag) (UniProt Q14145 321-609, limits assumed)
T1 construct: also called Keap1-MBP; Keap-MBP
Test: TR-FRET competition vs ETGE-biotin; grade band per paragraph 615

T1 sequence (Q14145 321-609 limits assumed): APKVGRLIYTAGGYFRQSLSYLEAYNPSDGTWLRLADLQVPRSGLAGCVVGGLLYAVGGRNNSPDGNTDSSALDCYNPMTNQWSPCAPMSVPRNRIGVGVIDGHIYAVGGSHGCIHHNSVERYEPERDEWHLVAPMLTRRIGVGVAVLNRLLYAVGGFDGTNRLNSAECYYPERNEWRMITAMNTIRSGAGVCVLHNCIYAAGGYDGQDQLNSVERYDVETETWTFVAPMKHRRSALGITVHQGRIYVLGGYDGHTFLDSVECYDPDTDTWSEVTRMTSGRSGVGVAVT

Row | Binder | IC50
1 | Stearoyl-[βAla]KQCDPETGECLP-NH2 (linker 4-11 via (1,2-phenylenediyl)dimethylene) | < 1 nM
2 | Stearoyl-[βAla]KKCDPETGECLP-NH2 (linker 4-11 via (1,2-phenylenediyl)dimethylene) | < 1 nM
3 | cyclo([Pro(4S-NH2)](Ac)QCDPETGECL[dP]) (linker 3-10 via (1,2-phenylenediyl)dimethylene) | < 1 nM
4 | Stearoyl-[βAla]LQCDPETGECLP-NH2 (linker 4-11 via (pyridine)3,5‑diyldimethylene) | < 1 nM
5 | cyclo([Pro(4S-NH2)](Stearoyl)QCDPETGECL[dP]) (linker 3-10 via (1,2-phenylenediyl)dimethylene) | < 1 nM
6 | cyclo(K(Stearoyl)QCDPETGECL[dP]) (linker 3-10 via (1,2-phenylenediyl)dimethylene) | < 1 nM
7 | cyclo([Pro(4S-NH2)](Stearoyl)QCDRETGECL[dP]) (linker 3-10 via (1,2-phenylenediyl)dimethylene) | < 1 nM
8 | Stearoyl-KQCDPETGECL[dP] (lactam 1-C; linker 3-10 via (1,2-phenylenediyl)dimethylene) | < 1 nM
9 | cyclo([Pro(4S-NH2)](Stearoyl)QCDPETGECL[dP]) (linker 3-10 via (1,3-phenylenediyl)dimethylene) | < 1 nM
10 | cyclo([Pro(4S-NH2)](Stearoyl)QCD[Thz]ETGECL[dP]) (linker 3-10 via (1,2-phenylenediyl)dimethylene) | < 1 nM
11 | cyclo([Pro(4S-NH2)](Myristoyl)QCDPETGECL[dP]) (linker 3-10 via (1,2-phenylenediyl)dimethylene) | < 1 nM
12 | cyclo([Pro(4S-NH2)](Palmitoyl)QCDPETGECL[dP]) (linker 3-10 via (1,2-phenylenediyl)dimethylene) | < 1 nM
13 | cyclo([Pro(4S-NH2)](Dodecyl)QCDPETGECL[dP]) (linker 3-10 via (1,2-phenylenediyl)dimethylene) | < 1 nM
14 | cyclo([Pro(4S-NH2)](α‑linolenyl)QCDPETGECL[dP]) (linker 3-10 via (1,2-phenylenediyl)dimethylene) | < 1 nM
15 | cyclo([Pro(4S-NH2)](oleyl)QCDPETGECL[dP]) (linker 3-10 via (1,2-phenylenediyl)dimethylene) | < 1 nM
16 | cyclo([Pro(4S-NH2)](behenyl)QCDPETGECL[dP]) (linker 3-10 via (1,2-phenylenediyl)dimethylene) | < 1 nM
17 | cyclo([Pro(4S-NH2)](arachidyl)QCDPETGECL[dP]) (linker 3-10 via (1,2-phenylenediyl)dimethylene) | < 1 nM
18 | cyclo([Pro(4S-NH2)](Arachidyl)QCD[Thz]ETGECL[dP]) (linker 3-10 via (1,2-phenylenediyl)dimethylene) | < 1 nM
19 | cyclo([Pro(4S-NH2)](Arachidyl)QCD[Thz]ETGECL[dP]) (linker 3-10 via (3,3-oxetanediyl)dimethylene) | < 1 nM
20 | cyclo([Pro(4S-NH2)](Arachidyl)QCDPETGECL[dP]) (linker 3-10 via (3,3-oxetanediyl)dimethylene) | < 1 nM
21 | cyclo([Pro(4S-NH2)](Stearoyl)QCD[Thz]ETGECL[dP]) (linker 3-10 via (1,3-phenylenediyl)dimethylene) | < 1 nM
22 | cyclo([Pro(4S-NH2)](Stearoyl)QCD[Thz]ETGECL[dP]) (linker 3-10 via (3,3-oxetanediyl)dimethylene) | < 1 nM
23 | cyclo([Pro(4S-NH2)](Nonadecanoyl′)QCDPETGECL[dP]) (linker 3-10 via (1,2-phenylenediyl)dimethylene) | < 1 nM
24 | Stearoyl-[βAla]LLCDPETGECLL-NH2 (linker 4-11 via (3,3-oxetanediyl)dimethylene) | < 1 nM
25 | H-LQCDAETGECLP-OH (linker 3-10 via (1,3-phenylenediyl)dimethylene) [{[H-Leu-Gln-Cys(&1)-Asp-Ala-Glu-Thr-Gly-Glu-Cys(&2)-Leu-Pro-OH][&1(1,3-phenylenediyl)dimethylene&2]}] | < 1 nM
26 | cyclo(LQCDEETGECLP) (linker 3-10 via (1,3-phenylenediyl)dimethylene) [{[&1Leu-Gln-Cys(&2)-Asp-Glu-Glu-Thr-Gly-Glu-Cys(&3)-Leu-Pro&1][&2(1,3-phenylenediyl)dimethylene&3]}] | < 1 nM
